From patent US20110082079A1 (Novo Nordisk, published 2011)
Numbering of substitutions follows the chain as printed. *1 amine or outer side, *2 acyl side, *3 side chain or, on linkers, in order; H or OH if unused. Where no end group is shown, it is not given here. Side-chain parts run from the residue outwards. [ ]: non-standard residue; d: D form. The star is where a group is joined. C20 diacid = O=C(O)CCCCCCCCCCCCCCCCCCC(=O)*; C18 diacid = O=C(O)CCCCCCCCCCCCCCCCC(=O)*; C16 diacid = O=C(O)CCCCCCCCCCCCCCC(=O)*; γGlu = O=C(O)[C@H](CCC(=O)[*:2])N[*:1]; Desaminohistidyl = O=C(CCc1c[nH]cn1)*; βAsp = O=C(O)[C@H](CC(=O)[*:2])N[*:1]; Palmitoyl = CCCCCCCCCCCCCCCC(=O)*; Trx = NC[C@H]1CC[C@H](C(=O)O)CC1; Dap = NC[C@H](N)C(=O)O; AEEA = NCCOCCOCC(=O)O; Aib = CC(C)(N)C(=O)O; Inp = O=C(O)C1CCNCC1

B1: [Aib8,Glu22,Arg26,Glu30,Pro37]GLP-1-(7-37)Lys … (peptide)
peptide: H[Aib]EGTFTSDVSSYLEEQAAREFIEWLVKGRPK
modifications: not fully specified (residue 32); printed as [Aib8,Glu22,Arg26,Glu30,Pro37]GLP-1-(7-37)Lys [2-(2-{2-[4-Carboxy-4-(4-carboxy-4-{4-[4-(16-1H-tetrazol-5-yl-hexadecanoylsulfamoyl)butyrylamino]butyrylamino}butyrylamino)butyrylamino]ethoxy}ethoxy)acetyl]
B2: N-epsilon37-{2-(2-(2-(2-[2-(2-(4-(hexadecanoylamino)-4-carboxybutyrylamino)ethoxy)ethoxy]acetyl)ethoxy)ethoxy)acetyl)}-[desaminoHis7,Glu22,Arg26, … (peptide)
peptide: [Desaminohistidyl]AEGTFTSDVSSYLEEQAAREFIEWLVRGRK([AEEA-AEEA-γGlu-Palmitoyl])-NH2
SMILES: CCCCCCCCCCCCCCCC(=O)N[C@@H](CCC(=O)NCCOCCOCC(=O)NCCOCCOCC(=O)NCCCC[C@H](NC(=O)[C@H](CCCNC(=N)N)NC(=O)CNC(=O)[C@H](CCCNC(=N)N)NC(=O)[C@@H](NC(=O)[C@H](CC(C)C)NC(=O)[C@H](Cc1c[nH]c2ccccc12)NC(=O)[C@H](CCC(=O)O)NC(=O)[C@@H](NC(=O)[C@H](Cc1ccccc1)NC(=O)[C@H](CCC(=O)O)NC(=O)[C@H](CCCNC(=N)N)NC(=O)[C@H](C)NC(=O)[C@H](C)NC(=O)[C@H](CCC(N)=O)NC(=O)[C@H](CCC(=O)O)NC(=O)[C@H](CCC(=O)O)NC(=O)[C@H](CC(C)C)NC(=O)[C@H](Cc1ccc(O)cc1)NC(=O)[C@H](CO)NC(=O)[C@H](CO)NC(=O)[C@@H](NC(=O)[C@H](CC(=O)O)NC(=O)[C@H](CO)NC(=O)[C@@H](NC(=O)[C@H](Cc1ccccc1)NC(=O)[C@@H](NC(=O)CNC(=O)[C@H](CCC(=O)O)NC(=O)[C@H](C)NC(=O)CCc1c[nH]cn1)[C@@H](C)O)[C@@H](C)O)C(C)C)[C@@H](C)CC)C(C)C)C(N)=O)C(=O)O
B3: N-alpha37-[2-(2-{2-[2-(2-{2-[(S)-4-Carboxy-4-(17-carboxy-heptadecanoylamino)-butyrylamino]-ethoxy}-ethoxy)-acetylamino]-ethoxy}-ethoxy)-acetyl][Aib8,Glu22,Arg26 … (peptide)
peptide: HXEGTFTSDVSSYLEEQAAREFIAWLVRGRK
modifications: not fully specified; Aib at 8; Lys37 is bound to the peptide through its epsilon amino group (epsilon-Lys37) and acylated at N-alpha with the side chain given in the name
B4: N-epsilon37-[2-(2-[2-(2-[2-(2-((R)-3-[1-(17-Carboxyheptadecanoyl)piperidin-4-ylcarbonylamino]3-carboxypropionylamino)ethoxy)ethoxy]acetylamino)ethoxy]ethoxy)ace … (peptide)
peptide: B3 peptide with H1X, X2A, F22X
modifications: desamino-histidine at 7; m-CF3-phenylalanine at 28; residue 37 acylated at N-epsilon with the side chain given in the name; C-terminal amide
B5: N-epsilon31-[2-(2-{2-[2-(2-{2-[(S)-4-Carboxy-4-(17-carboxyheptadecanoylamino)butyrylamino]ethoxy}ethoxy)acetylamino]ethoxy}ethoxy)acetyl][Aib8,Glu22,Val25,Arg26 … (peptide)
peptide: H[Aib]EGTFTSDVSSYLEEQAVREFIAK([AEEA-AEEA-γGlu-C18 diacid])LVKKK-NH2
modifications: N-terminus assumed
SMILES: CC[C@H](C)[C@H](NC(=O)[C@H](Cc1ccccc1)NC(=O)[C@H](CCC(=O)O)NC(=O)[C@H](CCCNC(=N)N)NC(=O)[C@@H](NC(=O)[C@H](C)NC(=O)[C@H](CCC(N)=O)NC(=O)[C@H](CCC(=O)O)NC(=O)[C@H](CCC(=O)O)NC(=O)[C@H](CC(C)C)NC(=O)[C@H](Cc1ccc(O)cc1)NC(=O)[C@H](CO)NC(=O)[C@H](CO)NC(=O)[C@@H](NC(=O)[C@H](CC(=O)O)NC(=O)[C@H](CO)NC(=O)[C@@H](NC(=O)[C@H](Cc1ccccc1)NC(=O)[C@@H](NC(=O)CNC(=O)[C@H](CCC(=O)O)NC(=O)C(C)(C)NC(=O)[C@@H](N)Cc1c[nH]cn1)[C@@H](C)O)[C@@H](C)O)C(C)C)C(C)C)C(=O)N[C@@H](C)C(=O)N[C@@H](CCCCNC(=O)COCCOCCNC(=O)COCCOCCNC(=O)CC[C@H](NC(=O)CCCCCCCCCCCCCCCCC(=O)O)C(=O)O)C(=O)N[C@@H](CC(C)C)C(=O)N[C@H](C(=O)N[C@@H](CCCCN)C(=O)N[C@@H](CCCCN)C(=O)N[C@@H](CCCCN)C(N)=O)C(C)C
notes: GLP-1(7-36) = residues 1-30 of the entry
B6: N-epsilon31-{2-(2-{2-[2-(2-{2-[4-Carboxy-4-(17-carboxy-heptadecanoylamino)butyrylamino]ethoxy}ethoxy)acetylamino]ethoxy}ethoxy)acetyl}-N-beta34-(2-(bis-carboxym … (peptide)
peptide: H[Aib]EGTFTSDVSSYLEEQAVREFIAK([AEEA-AEEA-γGlu-C18 diacid])LV[Dap](2‑(bis-carboxymethylamino)acetyl)-NH2
notes: GLP-1(7-34) = residues 1-28 of the entry

Legend:
human GLP-1 receptor = human GLP-1 receptor (human, UniProt P43220 24-463); assay: cell-based or functional assay
[1] = biological target: isolated N-terminal extracellular domain of the GLP-1R receptor (nGLP-1R) (UniProt P43220); assay: SPA; displacement of 125I-Exendin-4(9-39) from biotinylated nGLP-1R
[2] = biological target: T1, human serum albumin (HSA) (human, UniProt P02768 25-609, biotinylated); assay: competition SPA on biotinylated HSA beads; competitor 125I-labelled acylated GLP-1 analogue
T1 construct: also called biotinylated HSA

Sequence of human GLP-1 receptor (P43220 24-463): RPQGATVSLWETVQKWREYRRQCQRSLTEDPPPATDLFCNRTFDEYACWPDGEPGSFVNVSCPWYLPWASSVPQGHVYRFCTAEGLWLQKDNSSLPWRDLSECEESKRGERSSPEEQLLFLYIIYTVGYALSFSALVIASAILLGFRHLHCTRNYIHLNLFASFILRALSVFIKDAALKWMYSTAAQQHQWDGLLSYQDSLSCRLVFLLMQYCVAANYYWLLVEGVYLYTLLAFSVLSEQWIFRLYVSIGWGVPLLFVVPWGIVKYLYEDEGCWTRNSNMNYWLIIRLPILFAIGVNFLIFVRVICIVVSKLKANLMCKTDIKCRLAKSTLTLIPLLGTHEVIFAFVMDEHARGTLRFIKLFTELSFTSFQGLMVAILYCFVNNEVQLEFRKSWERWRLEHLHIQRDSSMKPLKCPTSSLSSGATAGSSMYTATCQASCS
Sequence of isolated N-terminal extracellular domain of the GLP-1R receptor (nGLP-1R) (P43220 24-145 limits assumed): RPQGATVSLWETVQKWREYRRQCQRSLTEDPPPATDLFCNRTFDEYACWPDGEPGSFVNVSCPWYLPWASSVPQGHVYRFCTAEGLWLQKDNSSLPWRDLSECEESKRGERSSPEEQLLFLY

| Potency [EC50/nM], cAMP formation (human GLP-1 receptor) | IC50 [1] | EC50 [2] | Molecule |
| --- | --- | --- | --- |
| 0.1 nM | 1500 nM |  | Liraglutide (peptide) |
| 0.74 nM |  | 800 nM | N-epsilon31{2-(2-{2-[2-(2-{2-[4-Carboxy-4-(17-carboxy-heptadecanoylamino)butyrylamino]ethoxy}ethoxy)acetylamino]ethoxy}ethoxy)acetyl}-[Aib8,Glu22,Val25,Arg26,Lys31,Arg34,Arg35,Arg37)]GLP-1(7-37)yl [Arg39,Arg40,Arg41] (peptide) |
| 0.66 nM |  |  | [Desaminohistidyl]AEGTFTSDVSSYLEEQAAREFIEWLVRGRK([AEEA-AEEA-γGlu-Trx-C20 diacid]) |
| 0.29 nM |  | 150 to 200 nM | B1 |
| 0.22 nM |  | 200 to 400 nM | H[Aib]EGTFTSDVSSYLEEQAAREFIEWLVKGK([AEEA-AEEA-C18 diacid])GE-NH2 |
| 0.16 nM |  |  | B2 |
| 0.08 nM |  | 200 to 400 nM | B3 |
| 0.35 nM |  | 1500 to 2000 nM | B4 |
| 0.04 nM |  | 1500 to 2000 nM | [Desaminohistidyl]AEGTFTSDVSSYLEEQAAREFIEWLVRGRGEK([AEEA-AEEA-γGlu-C18 diacid]) [[desaminoHis7, Glu22, Arg26, Glu30, …] |
| 0.21 nM |  | > 2000 nM | [Desaminohistidyl]AEGTFTSDVSSYLEEQAAREFIEWLVRGK([AEEA-AEEA-γGlu-C16 diacid])GEK |
| 0.06 nM |  | 100 to 150 nM | H[Aib]EGTFTSDVSSYLEEQAAREFIAWLVR[Aib]RK([AEEA-AEEA-γGlu-C18 diacid]) |
| 0.52 nM |  | 200 to 400 nM | H[Aib]EGTFTSDVSSYLEEQAAREFIK([AEEA-AEEA-βAsp-Inp-C20 diacid])WLVKGRG |
| 1.27 nM |  | > 2000 nM | H[Aib]EGTFTSDVSSYLEEQAVREFIAK([AEEA-AEEA-γGlu-C18 diacid])LVRRRR |
| 0.14 nM |  | 400 to 800 nM | B5 |
| 0.34 nM |  | 150 to 200 nM | B6 |
| 0.18 nM |  | 200 to 400 nM | H[Aib]EGTFTSDVSSYLEEQAAREFIAK([AEEA-AEEA-βAsp-Inp-C20 diacid])LVRGRG |
